Literature values as cited in article PMC11815838.

Molecular target: Her2 (ErbB2) ectodomain (UniProt P04626)
Assay: SPR (surface plasmon resonance)
Conditions: not stated (pH 7.4 and pH 5.0 running conditions; buffers given only in ref 2)

Substance	KD (pH 7.4) [µM]	KD (pH 5.0) [µM]
bH1 Fab variant P6 (H-Y100aH) H-Y100aH	0.01	–
bH1 Fab variant P2 (H-Y33H) H-Y33H	0.12	1.2
bH1 Fab variant P7 (L-R30aH) L-R30aH	0.0057	0.017

Other lines, results leading:

KD (pH 7.4) [µM]	KD (pH 5.0) [µM]	Substance
0.17	–	bH1 Fab variant P4 (H-Y56H) H-Y56H
0.0035	0.016	bH1 Fab variant P1 (H-N28H) H-N28H
0.0034	0.0099	bH1 Fab variant P8 (L-S30bH) L-S30bH
0.31	0.098	bH1 Fab variant P5 (H-R58H) H-R58H
